This is an account of results in patent US20210355207A1 (ACADEMIA SINICA, published 2021).

Assay [1] has as its target T1, synthetic peptide LKNQNQELPEDVNPAKKENYLSEQD (SEQ ID NO: 2).
T1 construct: Used to screen the hybridoma clones by ELISA; also called another synthetic peptide
T1 peptide: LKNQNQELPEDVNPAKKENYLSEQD
Briefly: ELISA screen of hybridoma clones on peptide.

The target in assay [2] is T2, human advillin-flag (hAvil-flag), exogenously expressed in 293 cells (human, UniProt O75366 1-819).
T2 construct: also called exogenous expression of human advillin clone; expression plasmid of human advillin; not shown: flag tag from the p3xFLAG-CMV14 vector
T2 sequence (looked up): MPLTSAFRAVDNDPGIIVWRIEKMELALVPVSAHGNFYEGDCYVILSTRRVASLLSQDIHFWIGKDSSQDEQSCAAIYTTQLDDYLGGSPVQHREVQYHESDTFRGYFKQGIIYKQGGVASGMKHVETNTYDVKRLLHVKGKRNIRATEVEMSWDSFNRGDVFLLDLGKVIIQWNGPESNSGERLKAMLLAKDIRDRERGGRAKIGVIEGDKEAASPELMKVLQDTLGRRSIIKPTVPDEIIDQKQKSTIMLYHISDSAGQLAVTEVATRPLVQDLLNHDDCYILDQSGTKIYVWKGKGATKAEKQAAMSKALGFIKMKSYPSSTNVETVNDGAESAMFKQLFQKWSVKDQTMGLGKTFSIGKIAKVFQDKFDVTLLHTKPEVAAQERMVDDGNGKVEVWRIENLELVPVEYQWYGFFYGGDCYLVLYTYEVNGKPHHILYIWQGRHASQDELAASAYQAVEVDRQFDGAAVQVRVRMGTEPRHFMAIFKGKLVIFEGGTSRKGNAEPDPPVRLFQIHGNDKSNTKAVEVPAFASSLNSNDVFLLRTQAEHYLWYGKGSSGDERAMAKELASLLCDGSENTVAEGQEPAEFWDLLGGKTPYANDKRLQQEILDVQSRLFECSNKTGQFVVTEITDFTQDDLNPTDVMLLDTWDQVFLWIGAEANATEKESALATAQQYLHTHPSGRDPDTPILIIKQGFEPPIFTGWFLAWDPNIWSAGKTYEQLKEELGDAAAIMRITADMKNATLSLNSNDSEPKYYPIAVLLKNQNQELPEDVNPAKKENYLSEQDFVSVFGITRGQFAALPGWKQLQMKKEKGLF
Briefly: western blot of lysates of 293 cells transfected with hAvil-flag or vector control. The text has this: FIG. 6 The monoclonal antibody of human advillin specifically recognized exogenous expression of human advillin in 293 cells. Human advillin clone was tagged with flag, and the construct of human advillin-flag (hAvil-flag) or vector control (flag) were transfected into 293 cells. The lysates were detected with the monoclonal antibody of human advillin and flag antibody respectively. The molecular weight of human advillin is predicted as 92 KDa and the detected signals were corresponded to predicted size of hAvil-flag around 100 KDa. The top signal is supposed as aggregated forms as detected in the flag-antibody recognized signal.
Primary antibodies used in western blot were rabbit polyclonal anti-mouse advillin (1 μg/ml), mouse monoclonal anti-human advillin, and rabbit anti-albumin (1:1000, both GeneTex, San Antonio, Tex., USA). […] Cerebrospinal fluid (CSF) samples or protein from cell lysates separated by SDS-PAGE were transferred onto PVDF membranes by using a Mini Trans-Blot Electrophoretic Transfer Cell (Bio-rad, CA, USA). […] Enhanced chemiluminescence (ECL) involved the Immobilon ECL Kit (Millipore, MA, USA) and signals were detected by using the BioSpectrum Auto Imaging System (UVP, CA, USA). […]
(In general: In western blotting, separated proteins are transferred to a membrane and probed.)

B1: monoclonal antibody of human advillin hAvil, produced by the hybridoma YCC-S1 (antibody, V domains shown)
VH: EVKLEESGGGLVQPGGSLKLSCVASGFAFSNSWMSWVRQSPEKGLEWVAEIRLKSDNYASHYAESVKGRFTISRDDSKSRLYLQMNALRAEDTGIYYCSDGTWFTYWGQGTLVTVST
VL: DIVMSQSPSSLAVSVGEKVTMNCKSSQSLLYRANQKNYLAWYQQKPGQSPKLLIYWASTRESGVPDRFTGSGSGTDFTLTISSVKAEDLAVYYCQQYYSHPFTFGSGTKLKIK
notes: also called mouse monoclonal anti-human advillin; anti-advillin antibody
Regarding B1, the binding result in assay [1] and in assay [2] was “binds” throughout.
